Numbering of substitutions follows the chain as printed. Names may count otherwise.
B1: wild type (WT) human βB2-crystallin (natural protein, UniProt P43320 1-205, looked up)
chain: MASDHQTQAGKPQSLNPKIIIFEQENFQGHSHELNGPCPNLKETGVEKAGSVLVQAGPWVGYEQANCKGEQFVFEKGEYPRWDSWTSSRRTDSLSSLRPIKVDSQEHKIILYENPNFTGKKMEIIDDDVPSFHAHGYQEKVSSVRVQSGTWVGYQYPGYRGLQYLLEKGDYKDSSDFGAPHPQVQSVRRIRDMQWHQRGAFHPSN
notes: Cloned BamHI/HindIII into pET28a; Oligomeric state depends on concentration (dimer at 0.2 mg/ml, dimer and tetramer at higher concentrations); also called WT βB2-crystallin; BB2; source: E. coli Rosetta (DE3), pET28a, purified (Ni-NTA, Superdex 200)
B2: A2V mutated βB2-crystallin (natural protein, human, UniProt P43320 1-205, looked up)
chain: B1 chain with A2V
notes: human βB2-crystallin with the congenital cataract-linked A2V mutation, made by site-directed mutagenesis with primers from the start codon to the stop codon; Same vector and tag as m1; also called A2V mutant; source: E. coli Rosetta (DE3), pET28a, purified (Ni-NTA, Superdex 200)
B3: βA3-crystallin (natural protein, UniProt P05813 1-215, looked up)
chain: METQAEQQELETLPTTKMAQTNPTPGSLGPWKITIYDQENFQGKRMEFTSSCPNVSERSFDNVRSLKVESGAWIGYEHTSFCGQQFILERGEYPRWDAWSGSNAYHIERLMSFRPICSANHKESKMTIFEKENFIGRQWEISDDYPSLQAMGWFNNEVGSMKIQSGAWVCYQYPGYRGYQYILECDHHGGDYKHWREWGSHAQTSQIQSIRRIQQ
notes: βA3-crystallin; also called BA3/BA1

Columns and labels:
[1] = molecular target: the molecule itself; test: SEC; Superdex 200HR 10/300GL, protein concentration raised above 0.2 up to 4 mg/ml, buffer A, equilibrated 2 h at 4°C, run at 16°C; tetramer to dimers
[2] = molecular target: the molecule itself; test: SEC; Superdex 200HR 10/300GL, protein at 0.2 mg/ml, buffer A (20 mM sodium phosphate, 100 mM NaCl, 1 mM DTT, 1 mM EDTA, pH 7.2), equilibrated 2 h at 4°C, run at 16°C; dimer
[3] = molecular target: the molecule itself; test: SEC; βA3-crystallin alone, run beside the mixtures of Figure 5A; concentration not given

Row | Protein | stoichiometry N [1] | stoichiometry N [2] | stoichiometry N [3]
1 | B1 | 4 | 2 | –
2 | B2 | 4 | 2 | –
3 | B3 | – | – | 2

— PMC3516508 (PLoS ONE, 2012)
